Among the data in patent US20120316071A1 (published 2012) are ECL signal values, retold here.

Test [1] deals with T1, rHuman ErbB2/Fc Chimera, CF (R&D Systems Cat#1129-ER) (human, UniProt P04626 23-652).
T1 construct: Bought reagent; also called human epidermal growth factor 2 receptor
The test is described as follows: MSD multispot ECL, antigen spotted, Fab 2.3 nM; blank spot 234.

Test [2] concerns the target T2, rHuman CD44/Fc Chimera, CF (R&D Systems Cat#3660-CD) (human, UniProt P16070 21-220).
T2 construct: Bought reagent
The description is as above.

The target of test [3] is T3, rHuman HGF R/c-MET/Fc Chimera, CF (R&D Systems Cat#358-MT/CF) (human, UniProt P08581 25-932).
T3 construct: Bought reagent; also called HGF R/Fc; hepatocyte growth factor receptor
Described as above.

The target in test [4] is T4, rHuman Notch-1/Fc Chimera, CF (R&D Systems Cat#3647-TK) (human, UniProt P46531 19-526).
T4 construct: Bought reagent
Described as above.

Test [5] concerns the target T5, rHuman IGF-1 sR, (IGF-1 sR), CF (R&D Systems Cat#391-GR) (human, UniProt P08069 31-932).
T5 construct: Bought soluble receptor; also called insulin-like growth factor-1 soluble receptor
Described as above.

In test [6] the target is T6, rHuman EGF R/Fc Chimera, CF (R&D Systems Cat#344-ER) (human, UniProt P00533 25-645).
T6 construct: Bought reagent; also called epidermal growth factor receptor
Described as above.

Test [7] concerns the target T7, rHuman Erythropoietin R/Fc Chimera, CF (R&D Systems Cat#963-ER) (human, UniProt P19235 25-250).
T7 construct: Bought reagent; also called EPO R/Fc; Epo R
T7 sequence (looked up): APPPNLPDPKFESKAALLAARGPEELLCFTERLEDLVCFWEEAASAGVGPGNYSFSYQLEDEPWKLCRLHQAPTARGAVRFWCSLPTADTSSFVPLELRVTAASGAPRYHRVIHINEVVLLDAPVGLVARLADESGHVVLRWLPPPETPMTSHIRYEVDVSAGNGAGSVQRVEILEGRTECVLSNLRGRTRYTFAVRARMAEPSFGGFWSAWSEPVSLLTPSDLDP
The test is described as above.

The target in test [8] is T8, Recombinant Human DLL4 (R&D Systems Cat#1506-D4/CF) (human, UniProt Q9NR61 27-524).
T8 construct: Bought recombinant protein; also called rHuman DLL4; delta-like protein 4
The description is as above.

Test [9] has as its target T9, rHuman CD44/Fc Chimera, CF (R&D Systems Cat#3660-CD) (human, UniProt P16070 21-220).
T9 construct: Bought from R&D Systems; not shown: Fc of the bought chimera
The test is described as follows: MSD multispot ECL, antigen spotted on plate, Fab 44.1 nM; blank spot 200.

Test [10] concerns the target T10, Recombinant Human DLL4 (R&D Systems Cat#1506-D4/CF) (human, UniProt Q9NR61 27-524).
T10 construct: Bought from R&D Systems; also called rHuman DLL4; delta-like protein 4
The test is described as above.

Test [11] addresses T11, rHuman EGF R/Fc Chimera, CF (R&D Systems Cat#344-ER) (human, UniProt P00533 25-645).
T11 construct: Bought from R&D Systems; also called epidermal growth factor receptor (EGF R); not shown: Fc of the bought chimera
Described as above.

For test [12], the target named is T12, rHuman Erythropoietin R/Fc Chimera, CF (R&D Systems Cat#963-ER) (human, UniProt P19235 25-250).
T12 construct: Bought from R&D Systems; also called EPO R/Fc; Epo R/Fc chimera; not shown: Fc of the bought chimera
T12 sequence (looked up): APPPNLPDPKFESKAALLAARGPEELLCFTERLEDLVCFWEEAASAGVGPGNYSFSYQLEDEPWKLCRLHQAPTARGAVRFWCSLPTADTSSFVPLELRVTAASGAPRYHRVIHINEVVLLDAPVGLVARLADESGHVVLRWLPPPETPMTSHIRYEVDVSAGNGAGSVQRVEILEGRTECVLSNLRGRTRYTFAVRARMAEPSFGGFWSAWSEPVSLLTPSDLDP
The test is described as above.

Test [13] has as its target T13, rHuman Notch-1/Fc Chimera, CF (R&D Systems Cat#3647-TK) (human, UniProt P46531 19-526).
T13 construct: Bought from R&D Systems; not shown: Fc of the bought chimera
Described as above.

The target in test [14] is T14, rHuman ErbB2/Fc Chimera, CF (R&D Systems Cat#1129-ER) (human, UniProt P04626 23-652).
T14 construct: Bought from R&D Systems; also called human epidermal growth factor 2 receptor (ErbB2); not shown: Fc of the bought chimera
The description is as above.

In test [15] the target is T15, rHuman IGF-1 sR, (IGF-1 sR), CF (R&D Systems Cat#391-GR) (human, UniProt P08069 31-932).
T15 construct: Bought from R&D Systems and called a soluble receptor; also called insulin-like growth factor-1 soluble receptor
The test is described as above.

For test [16], the target named is T16, rHuman HGF R/c-MET/Fc Chimera, CF (R&D Systems Cat#358-MT/CF) (human, UniProt P08581 25-932).
T16 construct: Bought from R&D Systems; also called HGF R/Fc; hepatocyte growth factor receptor (HGF R/c-Met); not shown: Fc of the bought chimera
The description is as above.

The target in test [17] is T17, rHuman CD44/Fc Chimera, CF (R&D Systems Cat#3660-CD) (human, UniProt P16070 21-220).
T17 construct: Bought Fc chimera; Fc part of the bought chimera not given
As to the kind of experiment: Multispot ECL (MSD) titration; antigen spotted on plate; Fab 98.1 nM; blank spot 210.

Test [18] addresses T18, rHuman ErbB2/Fc Chimera, CF (R&D Systems Cat#1129-ER) (human, UniProt P04626 23-652).
T18 construct: Bought Fc chimera; also called human epidermal growth factor 2 receptor; Fc part of the bought chimera not given
Described as above.

B1: Fab VH1-46_IGHD6-6*01_IGHJ1*01 & L6_IGKJ1*01 (Fab, V domains shown)
VH: QVQLVQSGAEVKKPGASVKVSCKASGYTFTSYYMHWVRQAPGQGLEWMGIINPSGGSTSYAQKFQGRVTMTRDTSTSTVYMELSSLRSEDTAVYYCAREEYSSSSAEYFQHWGQGTLVTVSS
VL: not shown
notes: Only variable domains are tied to the molecule; Tested as a Fab made in E. coli: heavy chain from Plasmid A (CH1 constant region, His6 and Flag tags), kappa light chain from Plasmid C (kappa CL); also called parent Hit Fab against DLL4; VH1-46_IGHD6-6*01_IGHJ1*01 & L6_IGKJ1*01 (parental)
Turning to B1, the ECL signal in test [1] came to 291 ECL signal; in [2], 317 ECL signal; in test [3], 253 ECL signal; in test [4], 333 ECL signal; in test [5] it was 231 ECL signal; in test [6] it was 289 ECL signal. The values for the ECL signal in [7] and in [8] were 429 ECL signal and 3060 ECL signal, respectively.

B2: Fab VH1-46_IGHD3-10*01_IGHJ4*01 & B3_IGKJ1*01 (Fab, V domains shown)
VH: QVQLVQSGAEVKKPGASVKVSCKASGYTFTSYYMHWVRQAPGQGLEWMGIINPSGGSTSYAQKFQGRVTMTRDTSTSTVYMELSSLRSEDTAVYYCAREYYYGSGSYYNDYFDYWGQGTLVTVSS
VL: not shown
notes: Tested as a Fab made in E. coli; VH was cloned into Plasmid A (CH1 constant region, His6 and Flag tags); The kappa VL was cloned into Plasmid C (kappa CL)
For B2, the ECL signal in [9] was found to be 302; in [10], 388; in test [11], 428; in [12], 2390; in test [13], 331; in [14], 347. The results for the ECL signal in test [15] and in test [16] were 309 and 336, respectively.

B3: Fab VH1-46_IGHD3-10*01_IGHJ4*01 & O1_IGKJ1*01 (Fab, V domains shown)
VH: QVQLVQSGAEVKKPGASVKVSCKASGYTFTSYYMHWVRQAPGQGLEWMGIINPSGGSTSYAQKFQGRVTMTRDTSTSTVYMELSSLRSEDTAVYYCAREYYYGSGSYYNDYFDYWGQGTLVTVSS
VL: DIVMTQTPLSLPVTPGEPASISCRSSQSLLDSDDGNTYLDWYLQKPGQSPQLLIYTLSYRASGVPDRFSGSGSGTDFTLKISRVEAEDVGVYYCMQRIEFPSWTFGQGTKVEIKR
notes: Germline library Fab expressed in E. coli; VH was cloned into Plasmid A (CH1 constant region, His6 and Flag tags); The kappa VL was cloned into Plasmid C (kappa CL)
As to B3, the ECL signal is 265 in test [17] and 247 in [18].
